# The DeepSol protein solubility set
# Experiment: soluble on expression in E. coli; label from the status in PepcDB or PDB records
row,Sequence,soluble on expression in E. coli
1,NKPSLLLYIHGFNSSPLSHKAQVMAEYCKVHRPDIKVIVPRLPSYPSQAAEFLVQLVEEYKDTHQIGLVGSSLGGYLSTWLNHQYGFKAALVNPAVKPYELLADYLGKQVNPYTQEEYFLEEKHMEELLALQVETLHSVDDLWLLQQEGDEVLDYRQAVDKYLACKQTIEKGGDHSFVNFERYPEQIIQFLN,not soluble
2,MGHHHHHHSHMAAPPQLRALLVVVNALLRKRRYHAALAVLKGFRNGAVYGAKIRAPHALVMTFLFRNGSLQEKLWAILQATYIHSWNLARFVFTYKGLRALQSYIQGKTYPAHAFLAAFLGGILVFGENNNINSQINMYLLSRVLFALSRLAVEKGYIPEPRWDPFPLLTAVVWGLVLWLFEYHRSTLQPSLQSSMTYLYEDSNVWHDISDFLIYNKSRPSN,not soluble
3,MGSDKIHHHHHHMIITLQDTETREISAKIDELHEERGEAALGRVLTLLISTNEAELEHDLEVANNASREHPCRVIAVAPSSRKISPEEEHPTFLDAEIRFGSDAGAGEIIVLRPRGGLVRHADTLVIPLLVPDAPVVAWWPNEAPANLSKDLLGSMASSRITDAMHSSNPRRTMDDLRRNRSAKDVDMSWTRLTVWRAMIASMLDQPPHLPVSNVRVTGQKDYLPLDLLAAWLRLRLNVPVMIEEDPNATAVTGVYLTRGDGVLSLERPSTDDGFAVISVPGQSPQTISVPARTLEECLSEELGRLYPDEIYSEVVSQGLDLVKPRQ,not soluble
4,MTPSKTTLVERCYKYIMSNEKNWSPYTVINRKSWVKNYIEPFFKDTKLIDINPVLIQTFINTTFNNCTFSSSKIRYRFISSVLKEAYRLREINENPCDFVKLPLEHHHHHH,not soluble
5,MSLSNTPIELKGSSFTLSVVHLHEAEPEVIRQALEDKIAQAPAFLKHAPVVINVSGLESPVNWPELHKIVTSTGLRIIGVSGCKDASLKVEIDRMGLPLLTEGKEKAVRPAPVEPATPSEPPQNANPITKTRLIDVPVRSGQRIYAPQCDLIVTSHVSAGAELIADGNIHVYGMMRGRALAGASGDREAQIFCTHLTAELVSIAGVYWLSDKIPAEFYGKAARLRLADNALTVQPLNEGHHHHHH,soluble
6,SQWIMHKTSTPEFCASCHSMSYPQQEWEGSSHFANAKGVRAQCSDCHIPKEGWHYVKAKFIALKDLWYEAQGKIENKEKYEAHRAEMAQRVWKDMKANDSETCRSCHSFDAMELSKQTKLAKQTHTEAQTNGQTCIDCHKGIVHFLPEVHGDQNTQKSSAVQGGTLSDGSAIFATEMVKATNDKGNEVRLMPYAELMQWKVDGDQIQGTLHGWQQVGAEAVVYQELGKRITLALMDEDARNHVQVLKIVHDAVTDSDWKEISVAVNVAKEKMTSDLTTLNQYGNQLNQTQCSGCHAAIGADHYTA,not soluble
7,MAHHHHHHMFLRVPLFVAHLRLLPRQRIYMGAHCGGNIWANGRSVSVHFMVGWCYTMSRDVAEASVSFKPLRRLAHTPYSKERDEEFSSIGMGHEDMMVGHVLLDEVKYQPLIHVKVLPCHFLEARSDTGESQVVPTSMCVHHIREDDYAALMARFGNDTSPVARLWRVSEDVIYPSCD,not soluble
8,MEGVDPAVEEAAFVADDVSNIIKESIDAVLQNQQYSEAKVSQWTSSCLEHCIKRLTALNKPFKYVVTCIIMQKNGAGLHTAASCWWDSTTDGSRTVRWENKSMYCICTVFGLAI,soluble
9,AHHHHHHGSGNNTEVIKMVEVRLENLTKKFGDFTAVNSLNLTIKDGEFLVLLGPSGCGKTTTLRMIAGLEEPTSGKIYFGDRDVTYLPPKDRNVSMVFQSYAVWPHMTVYENIAFPLKIKKYPKDEIERRVKWAAELLQIEELLDRYPAQLSGGQRQRVAVARAIVVEPDVLLMDEPLSNLDAKLRVAMRAEIKKLQQKLKVTTIYVTHDQVEAMTMGDRIAVMNRGKLLQVGSPTEVYLNPNSVFVATFIGAPEMNILEVSVGEGYLEGEGFKIELPDDIMEALRNYIGKTVLFGIRPEHMVIEGISELAHMRRTAKIKGVVDFVEALGTDTIVHVRFEESIIKVKLPGHIPLEIGKEVSVLIDLDKIHIFDKNSEKAII,soluble
10,KPPDPPNRVPEKKVVETSAFGHHVQLVNREGKAVGFIEIKESDDEGLDIHISANSLRPGASLGFHIYEKGSCVRPDFESAGGHFNPLNKEHGFNNPMGHHAGDLPNLEVGADGKVDVIMNAPDTSLKKGSKLNILDEDGSAFIIHEQADDYLTNPSGNSGARIVCGALLGNNEKQ,soluble
11,MAHTGENVLKGLPLKAIALAIALSNPVSAQTLEQAVSITLASNPELKSAFNQFKSREYDAEASSGAYLPKIDLDAGIGYEAINPAESSGNRNTDLTRKDATLTLTQLIWDGSATLNDMDRTAAEAEADRYQLLADASNMALEVAKIYLDATKASEILTLSENNLAIHKDIYRDIKKRADSGIGSTADVTQVEARLAKAHSNLVAAQNNLFDIYTQFRRLVGQEPVSLEFPRADQNAIPPTLENALNMAQENHPVIKVAQADVDAARFQYKQSKAPNYPTLSFEAAQSWRNDAGGIEGSSDELSAMLRLRYNLYNGGSDSDRTESAAYQLNRSKDLREKTFRTVEEGLRLSWSALDLTLQQKQFLADHVDSASKTVVSYRKQYQIGQRTLLDLLNTENELFEARKDYLDARYAEQYAKYRVMNASGNLLDALRVDIPQEWTAKVEY,not soluble
12,MTATASDDEAVTALALSAAKGNGRALEAFIKATQQDVWRFVAYLSDVGSADDLTQETFLRAIGAIPRFSARSSARTWLLAIARHVVADHIRHVRSRPRTTRGARPEHLIDGD,soluble
13,AERLPDFLAKIQPSEIFPGADRYGKPEGKPMVARVYKGDEQLGLVYITTDAVNTRGYSSKPIDTLMVLANDGTIAGAKLVDHHEPIMLIGIPHLPAPGRAIRSNWLPAYIKPNFTLTNRLRLKGLPTVPQPSKATGAGVP,not soluble
14,PVGYFTMYRFNFKYPPFDNKKIRQAAMYAIGQEDVMKALVGNPKYWQTCASLWGCGTPFETDIGKDMVVPSNIEKARALLKEAGYDNTPILVMHATDVGTLSAQPVVMAQALRKAGFNVNLAAMDWQSVATRRASKAAPAQGGWNIHNTNWYATDIMDPVRSAPAAANGDNAWFGWPDIPEIEALRTRFALSSDPAEQKKLAEEAQRIGIDEGLYVPLGQMSVPTVYTTKLSGLVHAPVFAFWNVKKAP,not soluble
15,MAKKTSSKGKLPPGPTPFPIIGNILQIDAKDISKSLTKFSECYGPVFTVYLGMKPTVVLHGYEAVKEALVDLGEEFAGRGSVPILEKVSKGLGIAFSNAKTWKEMRRFSLMTLRNFGMGKRSIEDRIQEEARCLVEELRKTNASPCDPTFILGCAPCNVICSVIFHNRFDYKDEEFLKLMESLHENVELLGTPWLQVYNNFPALLDYFPGIHKTLLKNADYIKNFIMEKVKEHQKLLDVNNPRDFIDCFLIKMEQENNLEFTLESLVIAVSDLFGAGTETTSTTLRYSLLLLLKHPEVAARVQEEIERVIGRHRSPCMQDRSRMPYTDAVIHEIQRFIDLLPTNLPHAVTRDVRFRNYFIPKGTDIITSLTSVLHDEKAFPNPKVFDPGHFLDESGNFKKSDYFMPFSAGKRMCVGEGLARMELFLFLTSILQNFKLQSLVEPKDLDITAVVNGFVSVPPSYQLCFIPIHHHH,soluble
16,MKRISPLRSLVACRWTNRARKRLAAVGLASICLLSACAPKFDKGEEVVQDKGSKQQEAVIPKYNIADSYYRVILPFKPSGARGEVVNDLNTRLDVDEFETGLMRLATEQFPSDEYLFQEGQYLDSETVGKWLARKKTTRQLKEEKMKPEDNLGLNPPISDTGTNEQKNKQSPIYLASILEHDYLVKIDNDKVKLGGIAIGLALNSVHYYSTEQGYPREVKIKDDVIEREGKRIAAEVLKRLRSMKGLGSVPITIALYKQAPRSSVVPGHFFAVAHVDGGDSTIDEWEAVNEEYYLFPSDEAEENHRDDWLKFNNFKSDVEDFFPNYTGIVGRGLYVNDQLQKLTINITMPFYGKAEVIGFTQYVTGLVMEKFPDYITVNVYIASAGQPESLIVRQAKADEPFVHIYQ,not soluble
17,MTRGPIFLNVGISYGLPRTKLPAAVSFRKWVAATLQGRIRKADLAIRIVDEKEGRALNYHYRNKDYATNVLSFPAQLPEPLPKALKIPLLGDIVMCAPVIAREAAEQGKSLSAHYAHLTVHGTLHLLGWNHEDHQEADAMEQLEREILANLGISDPYLEEY,soluble
18,MSDVSRILKEARSQSRLTTLDYAEQIFDDFMELHGDRHFADDGAIVGGIGLLDGQAVTVIGVQKGKNLQDNLNRNFGQPNPEGYRKALRLMKQAEKFKRPVVTFINTAGAYPGIGAEERGQGEAIARNLLEMSDLKVPIIAIIIGEGGSGGALALAVADKVWMLEHTMYAVLSPEGFASILWKDGSRSIEAAELMKITAGELLKMEVVDKVIPEHGYFSSEIIQMLKTNLIEELKNLDQYPLNDLLEKRYQRFRKY,not soluble
19,MAHHHHHHMPYQHIKVPEGGDKITVNKDFSLNVSDQPIIPYIEGDGTGFDITPVMIKVVDAAVEKAYGGKKKIHWMEIYAGEKATKVYGPDVWLPEETLQVLKEYVVSIKGPLTTPVGGGIRSLNVALRQELDLYVCLRPIQYFKGVPSPVREPEKTNMVIFRENSEDIYAGIEWAAESEQAKKVIKFLQEEMGVKKIRFPQTSGIGIKPVSKEGTERLVRKAIQYAIDNDRKSVTLVHKGNIMKFTEGAFRDAGYALAQKEFGAELIDGGPWMKFKNPKTGNEIVVKDSIADAFLQQILLRPAEYDVIATLNLNGDYISDALAAQVGGIGIAPGANLSDSVAMFEATHGTAPKYAGKDYVNPGSEILSAEMMLRHLGWTEAADVIISAMEKSIKQKRVTYDFARLMEGATQVSCSGFGQVLIENME,soluble
20,PELPTCLTRRLADYATEKPLVRLFFQGEEATVPFISQTSRELNMDINILLANIDRFDGVTCGVLVVELTANPLLLEAFINRCEQAGITVEVLGYVLPDGL,not soluble
21,MGHHHHHHSHMQTFQLDTERLCQAAKLYQHTKSDFGLNGMIQLSGSCNNMSLSVLGSIGGCAILRLELLEAARLHSSKDSSKSAIYSFRNASSLGREFTHGGELFGPKMESASLSFYGHHGVKYVEAQFVHDSSSKTVHTAAMQPITIPPSCAFDDREANGIVTLSTKTAAALVKWLKQHTKTCQSPVKVSISEILGVMVLSVGDASMTVDVTPVNVSSGKKTRGGNKASDSGTISADATVHVNGHCLIRSLIVCKVPGCTTPRVKFHACGILEVDGAPVKQGELTQVKLSVALLNVDSSTGRVLKEPVVTGASKDRGASKSEDADGSPPVPDHPKESLTSDSDSSVPGPRSTDLSSLTHTPSDRFSSDLRSGCGGQQFLKRPPPKKDREPTTKRPKLHFNHFP,soluble
22,MSVSLLRGRTVRRVLSVLVVAGLLGAGATGCSNDAGAKTENTVDASPTPTNTPTDGEGDSEGAEEPVEDTPAEPEQRPVPEEPEAMKTGDKAGAIAAATFFVEVIEYDATQPDSRFFSKYAYEECGWCNEYKKTHEQQANSNFSLINTNINLEDIKTASFAGEGSVLWSVPINANVSSHYKSKKDDEVVETEHTLTGNMLVGYRNGQWLLVEGDLLVK,not soluble
23,MGSDKIHHHHHHMIMINKTKRLMVSRQVKIPRKTYFWGPTPNPGMHPKDQSVTLLSIIRDYLKLSDKEREAARILANGLVKVDGKTVREKKFAVGFMDVIEINGESYRVVYNDQGALVLMKETKERASMKLLKVRSKVIAPGNRIQLGTHDGRTFITDDKSKKVGDVWAVSVPDMKISEIIKMQPGNKAYITAGSHVNQTGTISKIEAKEGSSANLVHFQEGFSTIKDHVFMIGSSKFSFVLSPEEVIP,not soluble
